Ends that are not written are not given here. * marks the point of attachment. Biotin = O=C1N[C@H]2[C@H](CS[C@H]2CCCCC(=O)*)N1
Columns and labels:
[1] = target: T1, GST-PSD95 PDZ domain fusion protein (human post-synaptic density protein 95 AA387-724; PDZ domains 1-3 of 3) (human, UniProt P08515 1-218 = GST); experiment: A assay
[2] = target: T2, GST-NeDLG PDZ domain fusion protein (presynaptic protein sao102, neuroendocrine-dlg; PDZ domains 1-2 of 3) (UniProt P08515 1-218 = GST); experiment: G assay
T2 construct: also called NeDLG1

[3] = target: T3, GST-CASK PDZ domain fusion protein (CASK AA495-584; PDZ domain 1 of 1) (mouse, UniProt P08515 1-218 = GST); experiment: A/G assays
T3 construct: also called mCASK

[4] = target: GST-LIM PDZ domain fusion protein (Human LIM protein AA29-112; PDZ domain 1 of 1) (human, UniProt P08515 1-218 = GST); experiment: A/G assays
[5] = target: GST-LIMK2 PDZ domain fusion protein (human LIM domain kinase 2 AA185-275; PDZ domain 1 of 1) (human, UniProt P08515 1-218 = GST); experiment: A/G assays
[6] = target: T4, GST-MPP2 PDZ domain fusion protein (maguk p55 subfamily member 2 (DLG2) AA185-273; PDZ domain 1 of 1) (UniProt P08515 1-218 = GST); experiment: A/G assays
T4 construct: also called MMP2

[7] = target: GST-NOS1 PDZ domain fusion protein (human neuronal nitric oxide synthase; PDZ domain 1 of 1) (human, UniProt P08515 1-218 = GST); experiment: A/G assays
[8] = target: GST-AF6 PDZ domain fusion protein (af-6 protein AA985-1077; PDZ domain 1 of 1) (UniProt P08515 1-218 = GST); experiment: A/G assays
[9] = target: GST-PTN-4 PDZ domain fusion protein (protein-tyrosine phosphatase meg1 AA774-862; PDZ domain 1 of 1) (UniProt P08515 1-218 = GST); experiment: A/G assays
[10] = target: GST-prIL16 PDZ domain fusion protein (putative interleukin 16 precursor AA170-383; PDZ domains 1-2 of 2) (UniProt P08515 1-218 = GST); experiment: A/G assays
[11] = target: T5, GST-41.8 kD PDZ domain fusion protein (hypothetical 41.8 kD protein AA4-85; PDZ domain 1 of 1) (UniProt P08515 1-218 = GST); experiment: A/G assays
T5 construct: also called hypoth

[12] = target: T6, GST-KIAA0559 PDZ domain fusion protein (KIAA0559 AA766-870; PDZ1 of 1) (UniProt P08515 1-218 = GST); experiment: A/G assays
T6 construct: also called K559

[13] = target: GST-MPP1 PDZ domain fusion protein (55 Kd erythrocyte membrane protein AA101-186; PDZ domain 1 of 1) (UniProt P08515 1-218 = GST); experiment: A/G assays
[14] = target: T7, GST-RGS12 PDZ domain fusion protein (human regulator of G-protein signalling 12 AA35-103; PDZ domain 1 of 1) (human, UniProt P08515 1-218 = GST); experiment: A/G assays
T7 construct: also called RSG12

[15] = target: T8, GST-KIAA0316 PDZ domain fusion protein (KIAA0316 AA197-284; PDZ domain 1 of 1) (UniProt P08515 1-218 = GST); experiment: A/G assays
T8 construct: also called K316

[16] = target: GST-DVL1 PDZ domain fusion protein (human dishevelled segment polarity protein homolog AA248-340); PDZ domain … (human, UniProt P08515 1-218 = GST); experiment: A/G assays
[17] = target: T9, GST-TAX40 PDZ domain fusion protein (human tax interaction protein 40 AA35-137; PDZ domain 1 of 1) (human, UniProt P08515 1-218 = GST); experiment: A/G assays
T9 construct: also called TX 40

[18] = target: GST-TIAM1 PDZ domain fusion protein (T-lymphoma invasion and metastasis inducing protein 1 AA1001-1088); PDZ 1 … (UniProt P08515 1-218 = GST); experiment: A/G assays
[19] = target: T10, GST-KIAA0303 PDZ domain fusion protein (KIAA0303 AA652-742; PDZ domain 1 of 1) (UniProt P08515 1-218 = GST); experiment: A/G assays
T10 construct: also called K303

[20] = target: T11, GST-CBP PDZ domain fusion protein (Cytohesin binding protein HE AA85-175; PDZ domain 1 of 1) (UniProt P08515 1-218 = GST); experiment: A/G assays
T11 construct: also called Prot

[21] = target: GST-MINT3 PDZ domain fusion protein (human MINT3 AA11-52; PDZ domain 1 of 1) (human, UniProt P08515 1-218 = GST); experiment: A/G assays
[22] = target: T12, GST-TAX2 PDZ domain fusion protein (human tax interaction protein 2 AA54-140; PDZ domain 1 of 1) (human, UniProt P08515 1-218 = GST); experiment: A/G assays
T12 construct: also called TX 2

[23] = target: T13, GST-TAX33 PDZ domain fusion protein (tax interaction protein 33 AA73-162; PDZ domain 1 of 1) (UniProt P08515 1-218 = GST); experiment: A/G assays
T13 construct: also called TX33

[24] = target: T14, GST-SYN1a PDZ domain fusion protein (alpha1-syntrophin AA96-189; PDZ domain 1 of 1) (UniProt P08515 1-218 = GST); experiment: A/G assays
T14 construct: also called SYN 1 alpha; SYNTR 1 alpha

[25] = target: T15, GST-TAX43 PDZ domain fusion protein (human tax interaction protein 43 AA15-85; PDZ domain 1 of 1) (human, UniProt P08515 1-218 = GST); experiment: A/G assays
T15 construct: also called TX 43

[26] = target: T2, GST-NeDLG PDZ domain fusion protein …; experiment: A/G assays
[27] = target: T5, GST-41.8 kD PDZ domain fusion protein …; experiment: A and G assays
[28] = target: T1, GST-PSD95 PDZ domain fusion protein …; experiment: A/G assays
[29] = target: T2, GST-NeDLG PDZ domain fusion protein …; experiment: A assay

Chain of GST-MINT3 PDZ domain fusion protein (human MINT3 AA11-52; PDZ domain 1 of 1) (P08515 1-218, tags or fused parts left off): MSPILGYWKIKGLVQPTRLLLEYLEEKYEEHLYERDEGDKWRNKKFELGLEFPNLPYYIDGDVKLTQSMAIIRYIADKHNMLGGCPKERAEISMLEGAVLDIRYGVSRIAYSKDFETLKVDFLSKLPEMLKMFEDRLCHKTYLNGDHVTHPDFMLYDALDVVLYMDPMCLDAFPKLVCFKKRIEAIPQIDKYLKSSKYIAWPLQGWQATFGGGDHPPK
Chain of GST-prIL16 PDZ domain fusion protein (putative interleukin 16 precursor AA170-383; PDZ domains 1-2 of 2) (P08515 1-218, tags or fused parts left off): as above
T1 sequence (P08515 1-218, tags or fused parts left off): as above
Chain of GST-LIMK2 PDZ domain fusion protein (human LIM domain kinase 2 AA185-275; PDZ domain 1 of 1) (P08515 1-218, tags or fused parts left off): as above
T5 sequence (P08515 1-218, tags or fused parts left off): as above
T7 sequence (P08515 1-218, tags or fused parts left off): as above
Chain of GST-TIAM1 PDZ domain fusion protein (T-lymphoma invasion and metastasis inducing protein 1 AA1001-1088); PDZ 1 … (P08515 1-218, tags or fused parts left off): as above
T14 sequence (P08515 1-218, tags or fused parts left off): as above
T4 sequence (P08515 1-218, tags or fused parts left off): as above
Chain of GST-DVL1 PDZ domain fusion protein (human dishevelled segment polarity protein homolog AA248-340); PDZ domain … (P08515 1-218, tags or fused parts left off): as above
T12 sequence (P08515 1-218, tags or fused parts left off): as above
Chain of GST-AF6 PDZ domain fusion protein (af-6 protein AA985-1077; PDZ domain 1 of 1) (P08515 1-218, tags or fused parts left off): as above
Chain of GST-LIM PDZ domain fusion protein (Human LIM protein AA29-112; PDZ domain 1 of 1) (P08515 1-218, tags or fused parts left off): as above
T10 sequence (P08515 1-218, tags or fused parts left off): as above
T3 sequence (P08515 1-218, tags or fused parts left off): as above
Chain of GST-PTN-4 PDZ domain fusion protein (protein-tyrosine phosphatase meg1 AA774-862; PDZ domain 1 of 1) (P08515 1-218, tags or fused parts left off): as above
T8 sequence (P08515 1-218, tags or fused parts left off): as above
T15 sequence (P08515 1-218, tags or fused parts left off): as above
T9 sequence (P08515 1-218, tags or fused parts left off): as above
T2 sequence (P08515 1-218, tags or fused parts left off): as above
T11 sequence (P08515 1-218, tags or fused parts left off): as above

Row | Binder | binding result [3] | binding result [4] | binding result [5] | binding result [6] | binding result [7] | binding result [8] | binding result [9] | binding result [10] | binding result [12] | binding result [13] | binding result [14] | binding result [15] | binding result [16] | binding result [17] | binding result [18] | binding result [19] | binding result [20] | binding result [21] | binding result [22] | binding result [23] | other results
1 | Biotin-ISKATPALPTVSISSSAEV (also called AA1L-R) [CLASP-1 C-terminal PL peptide AA1L, biotinylated] | no binding | no binding | no binding | no binding | no binding | no binding | no binding | no binding | no binding | no binding | no binding | no binding | no binding | no binding | no binding | no binding | no binding | no binding | no binding | no binding | binding result [1]: binds; binding result [2]: binds; binding result [11]: no binding; binding result [24]: no binding; binding result [25]: no binding
2 | Biotin-SVFSIPTLWSPWPPSSSSQL (also called CD3-eta) [CD3n C-terminal PL peptide AA4L, biotinylated] | no binding | no binding | no binding | no binding | no binding | no binding | no binding | no binding | no binding | no binding | no binding | no binding | no binding | no binding | no binding | no binding | no binding | no binding | no binding | no binding | binding result [1]: binds; binding result [26]: no binding; binding result [24]: no binding; binding result [25]: no binding; binding result [27]: binds
3 | Biotin-HKAEIHAQPSDKERLTSDA [CD49F (Aform, alpha 6) C-terminal PL peptide AA12L, biotinylated] | no binding | no binding | no binding | no binding | no binding | no binding | no binding | no binding | no binding | no binding | no binding | no binding | no binding | no binding | no binding | no binding | no binding | no binding | no binding | no binding | binding result [28]: no binding; binding result [26]: no binding; binding result [24]: no binding; binding result [25]: no binding; binding result [27]: binds
4 | Biotin-QATSRNGHSARQHVVADTEL [CD34 C-terminal PL peptide AA7L, biotinylated] | no binding | no binding | no binding | no binding | no binding | no binding | no binding | no binding | no binding | no binding | no binding | no binding | no binding | no binding | no binding | no binding | no binding | no binding | no binding | no binding | binding result [1]: binds; binding result [2]: binds; binding result [11]: no binding; binding result [24]: no binding; binding result [25]: no binding
5 | Biotin-ARHRVTSYTSSSVNVSSNL [CDW128A (IL8RA) C-terminal PL peptide AA29.1L, biotinylated] | no binding | no binding | no binding | no binding | no binding | no binding | no binding | no binding | no binding | no binding | no binding | no binding | no binding | no binding | no binding | no binding | no binding | no binding | no binding | no binding | binding result [29]: binds; binding result [11]: no binding; binding result [28]: no binding; binding result [24]: no binding; binding result [25]: no binding

From patent publication US20090149339A1 (published 2009)
